{
  "source": "patent CN114276439A",
  "about": "(YUDOLONG SUZHOU MEDICAL SCIENCE AND TECH LIMITED COMPANY, dated 2022)",
  "binders": {"B1": {"name": "单克隆抗体50A11 (antibody, V domains shown)", "VH": "DVQLQESGPGLVKPSQSLSLTCTVTGYSITSYHAWNWIRQFPGNKLEWMAYINYSGKTSYNPSLKSRISITRDTSKNQFLLQLNSVTTEDTATYYCARVDWEGNYFDYWGQGTTVTVSS", "VL": "DVLMTQTPLSLPVSLGDQASISCRSSQSILHSNGNTYLQWYLQKPGQSPNLLIYKVSNRFSGVPDRFSGSGSGTDFTLKISRVEAEDLGVYYCFQGSHVPPTFGGGTKLEIKR", "notes": "constant regions are not"}},
  "key": {"HPV16假病毒": {"target": "T1, HPV16假病毒 (HPV16, UniProt P03101 1-505)", "T1 sequence": "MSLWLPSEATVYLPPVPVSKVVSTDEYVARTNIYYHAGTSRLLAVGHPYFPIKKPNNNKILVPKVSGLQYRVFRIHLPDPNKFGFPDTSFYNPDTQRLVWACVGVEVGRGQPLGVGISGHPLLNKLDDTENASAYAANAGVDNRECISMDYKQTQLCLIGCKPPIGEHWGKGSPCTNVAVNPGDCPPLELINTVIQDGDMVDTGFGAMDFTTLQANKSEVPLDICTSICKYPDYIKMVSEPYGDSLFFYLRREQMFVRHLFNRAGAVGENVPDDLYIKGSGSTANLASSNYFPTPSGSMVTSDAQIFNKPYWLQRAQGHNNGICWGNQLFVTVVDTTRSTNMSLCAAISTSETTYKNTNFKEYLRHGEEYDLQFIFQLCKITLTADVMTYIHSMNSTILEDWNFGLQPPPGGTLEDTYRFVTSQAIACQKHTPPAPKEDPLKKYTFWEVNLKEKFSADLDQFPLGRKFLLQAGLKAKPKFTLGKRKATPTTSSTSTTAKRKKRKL", "assay": "cell-based or functional assay"}, "HPV11 VLP": {"target": "T2, HPV11 VLP (HPV11, UniProt P04012 1-501)", "T2 sequence": "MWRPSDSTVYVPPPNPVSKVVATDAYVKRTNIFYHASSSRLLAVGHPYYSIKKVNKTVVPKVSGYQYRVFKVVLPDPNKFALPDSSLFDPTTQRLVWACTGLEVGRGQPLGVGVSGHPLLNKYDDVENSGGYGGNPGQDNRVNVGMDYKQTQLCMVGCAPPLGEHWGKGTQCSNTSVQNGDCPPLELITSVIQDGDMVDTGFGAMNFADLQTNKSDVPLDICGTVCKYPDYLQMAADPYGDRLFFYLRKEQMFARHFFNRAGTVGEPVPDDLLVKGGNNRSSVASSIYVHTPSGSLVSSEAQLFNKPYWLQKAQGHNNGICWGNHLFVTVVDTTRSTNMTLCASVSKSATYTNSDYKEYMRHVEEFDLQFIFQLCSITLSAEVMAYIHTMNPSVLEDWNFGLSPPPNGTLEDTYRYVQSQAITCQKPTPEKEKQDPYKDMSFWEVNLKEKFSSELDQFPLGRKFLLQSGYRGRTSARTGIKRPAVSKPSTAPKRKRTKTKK", "assay": "indirect ELISA, VLP coated at 0.25 μg/ml"}},
  "data": [
    {"binder": "B1", "values": [
      {"measurement": "HPV16假病毒中和反应IC50", "setting": "HPV16假病毒", "value": 1.35, "unit": "ng/mL"},
      {"measurement": "binding result", "setting": "HPV11 VLP", "value": "no binding"}
    ]}
  ]
}
